Reference: doi:10.1101/2025.11.06.687086 (2025)

Target: A/Texas/37/2024 (H5N1) HA (influenza A virus A/Texas/37/2024 (H5N1))
Test: BLI

Binder	Kd [nM]
HB31 VH R55G germline revertant Fab (Fab, V domains shown) VH: EVQLLESGGGLVQPGGSLRLSCTVSGFTSSNYDMSWVRQAPGKGLEWVSGISGTGGDTYYADSVKGRFTISRDNSKNTLSLQMNSLRADDTAVYFCARDRPVLRYFDWQPYGLDVWGKGTTVTVSS VL: QSALTQPPSASGSPGQSVTISCTGTSSDVGGYNYVSWYQQYPSKAPKLMIYEVSKRPSGVPDRFSGSKSGNTASLTVSGLQAEDEADYYCNSYAGSNLYVFGTGTKVTVL	10.5
HB31 Fab (Fab, V domains shown) VH: EVQLLESGGGLVQPGGSLRLSCTVSGFTSSNYDMSWVRQAPGKGLEWVSGISGTGRDTYYADSVKGRFTISRDNSKNTLSLQMNSLRADDTAVYFCARDRPVLRYFDWQPYGLDVWGKGTTVTVSS VL: QSALTQPPSASGSPGQSVTISCTGTSSDVGGYNYVSWYQQYPSKAPKLMIYEVSKRPSGVPDRFSGSKSGNTASLTVSGLQAEDEADYYCNSYAGSNLYVFGTGTKVTVL	4.5
